Data published in patent US20170342126A1 (MAYO FOUNDATION FOR MEDICAL EDUCATION AND RESEARCH, published 2017).
Like-named read-outs stand apart in the source and are kept apart here. One block for each molecule: values may come before it.

Tests used:
HLA-DR DRB1*1302 (human) [1] = assay: radioligand inhibition, purified HLA-DR
HLA-DR DRB1*1501 (human) = assay: radioligand inhibition, purified HLA-DR
[2] = biological target: purified HLA-DR molecule DRB1*0901 (human); assay: radioligand inhibition, purified HLA-DR
HLA-DR DRB1*0901 (human) = assay: radioligand inhibition, purified HLA-DR
HLA-DR DRB1*0701 = HLA-DR DRB1*0701 (human); assay: radioligand inhibition, purified HLA-DR
[3] = biological target: purified HLA-DR molecule DRB5*0101 (human); assay: radioligand inhibition, purified HLA-DR
[4] = biological target: purified HLA-DR molecule DRB1*1302 (human); assay: radioligand inhibition, purified HLA-DR
HLA-DR DRB5*0101 (human) = assay: radioligand inhibition, purified HLA-DR
HLA-DR DRB1*0101 (human) = biological target: T1, HLA-DR DRB1*0101 (human); assay: radioligand competition, purified HLA-DR; details: remark: other sources report otherwise
T1 chain 1: not shown
T1 chain 2: not shown

HLA-DR DRB1*0405 (human) = biological target: T2, HLA-DR DRB1*0405 (human); assay: radioligand competition, purified HLA-DR; details: remark: other sources report otherwise
T2 chain 1: not shown
T2 chain 2: not shown

HLA-DR DRB1*0401 (human) [5] = biological target: T3, HLA-DR DRB1*0401 (human); assay: radioligand competition, purified HLA-DR; details: remark: other sources report otherwise
T3 chain 1: not shown
T3 chain 2: not shown

[6] = biological target: at least four different HLA-DR variants (of 15 different purified HLA-DR molecules); assay: radioligand inhibition, purified HLA-DR
HLA-DR DRB1*0802 (human) = biological target: T4, HLA-DR DRB1*0802 (human); assay: radioligand inhibition, purified HLA-DR; details: remark: other sources report otherwise
T4 chain 1: not shown
T4 chain 2: not shown

HLA-DR DRB1*0401 (human) [7] = biological target: T3, HLA-DR DRB1*0401 (human); assay: radioligand inhibition, purified HLA-DR; details: remark: other sources report otherwise
HLA-DR DRB1*1302 (human) [8] = biological target: T5, HLA-DR DRB1*1302 (human); assay: radioligand inhibition, purified HLA-DR; details: remark: other sources report otherwise
T5 chain 1: not shown
T5 chain 2: not shown

HLA-DR DRB1*0404 (human) = biological target: T6, HLA-DR DRB1*0404 (human); assay: radioligand competition, purified HLA-DR; details: remark: other sources report otherwise
T6 chain 1: not shown
T6 chain 2: not shown

HLA-DR DRB4*0101 (human) = biological target: T7, HLA-DR DRB4*0101 (human); assay: radioligand inhibition, purified HLA-DR; details: remark: other sources report otherwise
T7 chain 1: not shown
T7 chain 2: not shown

Molecule: Peptide 9019.0115, CEA.126
IC50 (HLA-DR DRB1*1302 (human) [1]): 394 nM
IC50 (HLA-DR DRB1*1501 (human)): 376 nM

Molecule: Peptide 9019.0118 (CEA.176)
IC50 [2]: 1910 nM

Molecule: Peptide 9019.0005, CEA.122
IC50 (HLA-DR DRB1*0701): 6340 nM
IC50 (HLA-DR DRB1*1302 (human) [1]): 9960 nM

Molecule: Peptide 9019.0009, Cyclin D1.129
IC50 (HLA-DR DRB1*1302 (human) [1]): 3490 nM

Molecule: CYGLGMEHLREVRAV [Peptide 9019.0044]
IC50 (HLA-DR DRB1*0101 (human)): 139 nM

Molecule: TEILKGGVLIQRNPQ [Peptide 9019.0039]
IC50 (HLA-DR DRB1*0101 (human)): 71 nM

Molecule: GTDMKLRLPASPETH [Peptide 9019.0027, Her2/neu.28]
IC50 (HLA-DR DRB1*0701): 6810 nM

Molecule: HNQVRQVPLQRLRIV [Peptide 9019.0034, Her2/neu.88]
IC50 [6]: < 1000 nM
IC50 (HLA-DR DRB1*0802 (human)): 95 nM

Molecule: KELAVFREKVTEQHR [9019.0186]
IC50 (HLA-DR DRB1*0401 (human) [7]): 21 nM

Molecule: TTPVTGASPGGLREL [Peptide 9019.0037, Her2/neu.126]
IC50 (HLA-DR DRB1*1302 (human) [8]): 605 nM

Molecule: GYVIGTQQATPGPAY [9019.0110]
IC50 (HLA-DR DRB4*0101 (human)): 6.3 nM

Next, values leading:

IC50 (HLA-DR DRB1*0901 (human)): 1910 nM
Molecule: Peptide 9019.0118, CEA.176

IC50 [3]: 2280 nM
IC50 [4]: 1920 nM
Molecule: Peptide 9019.0126 (CEA.354)

IC50 (HLA-DR DRB1*1302 (human) [1]): 1920 nM
IC50 (HLA-DR DRB5*0101 (human)): 2280 nM
Molecule: Peptide 9019.0126, CEA.354

IC50 (HLA-DR DRB1*0405 (human)): 3170 nM
IC50 (HLA-DR DRB1*0401 (human) [5]): 95 nM
Molecule: KLCIYTDNSIRPEEL [Peptide 9019.0159]

IC50 [6]: < 1000 nM
Molecule: AQTFVALCATDVKFI [Peptide 9019.0168, Cyclin D1.182]

IC50 (HLA-DR DRB1*0405 (human)): 1450 nM
Molecule: SDSVILNVLYGPDAP [Peptide 9019.0119]

IC50 (HLA-DR DRB1*0404 (human)): 26 nM
IC50 (HLA-DR DRB1*0405 (human)): 1850 nM
Molecule: VCGIQNSVSANRSDP [Peptide 9019.0135]
